Broadly, the Kd is the equilibrium constant for the complex coming apart. The koff is the rate constant with which the complex falls apart. By kon is commonly meant the second-order rate constant of association.

Experiment [1] concerns the target T1, human CD3ed (human, UniProt P07766 23-126; P04234 22-105, limits assumed).
T1 construct: The construct injected as 'human CD3ed' in the Biacore assay is not defined; also called human CD3 epsilon/delta heterodimer
Nature of the experiment: SPR Biacore T200, IgG captured on protein A, antigen as analyte, 25 C.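 Further: antigens flowed over a CM3 chip for 120 s association, KD derived from ka and kd, running buffer (ACES, NaCl, Tween20, pH 7.4) served as blank.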 Background: In SPR one partner is held on a chip, and binding of the other changes the refractive index at the surface.
Protocol: (§1) Sensor chip CM3 (GE Healthcare) was immobilized with an appropriate amount of sure protein A (GE Healthcare) by amine coupling. The selected antibodies were captured by the chip to allow interaction to human CD3ed, human CD137 and cyno CD137 as an antigen. The running buffer used was 20 mmol/l ACES, 150 mmol/l NaCl, 0.05% (w/v) Tween20, pH 7.4. All measurements were carried out at 25 degrees C. The antigens were diluted using the running buffer.
(§2) Diluted antigen solutions and the running buffer which is the blank were loaded at a flow rate of 30 micro L/min for 120 seconds to allow each of the antigens to interact with the antibody captured on the sensor chip. […] Next, to regenerate the sensor chip, 10 mmol/L glycine-HCl, pH 1.5 was loaded at a flow rate of 30 micro L/min for 30 seconds and 50 mmol/L NaOH was loaded at a flow rate 30 micro L/min for 30 seconds.
(§3) Kinetic parameters such as the association rate constant ka (1/Ms) and the dissociation rate constant kd (1/s) were calculated based on the sensorgrams obtained by the measurements. The dissociation constant KD(M) was calculated from these constants. Each parameter was calculated using the Biacore T200 Evaluation Software (GE Healthcare).

For experiment [2], the target named is T2, cynomolgus monkey CD137 (cynomolgus monkey, UniProt Q07011 24-186 (human entry), limits assumed).
T2 construct: Soluble analyte in the Biacore assay; also called cyno CD137
T2 chain: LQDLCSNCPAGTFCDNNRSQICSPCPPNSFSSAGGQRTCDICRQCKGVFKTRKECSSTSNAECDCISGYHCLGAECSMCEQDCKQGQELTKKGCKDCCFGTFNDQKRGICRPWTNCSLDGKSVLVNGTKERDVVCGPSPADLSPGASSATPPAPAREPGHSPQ
Described as above.
Protocol: as §1, §2, §3

The target of experiment [3] is T3, CD3 epsilon homodimer protein (UniProt P07766 23-126).
T3 construct: also called CD3 (CD3 epsilon)
T3 sequence (P07766 23-126): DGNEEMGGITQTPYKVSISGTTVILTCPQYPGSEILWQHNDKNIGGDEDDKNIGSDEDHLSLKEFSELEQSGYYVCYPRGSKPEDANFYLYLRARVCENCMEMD
As to the kind of experiment: SPR Biacore T200, CD3 epsilon homodimer immobilised on CM4, one-arm antibody as analyte, single-cycle kinetics; reference unaltered GLS3000 antibody.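 Further: CD3 epsilon homodimer attached to the CM4 chip via amine coupling, measured at 25 °C with HBS-EP+ as running buffer.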
Protocol: An appropriate amount of CD3 epsilon homodimer protein was immobilized onto Sensor chip CM4 (GE Healthcare Japan Corp.) by the amine coupling method. Then, the antibody having an appropriate concentration was injected thereto as an analyte and allowed to interact with the CD3 epsilon homodimer protein on the sensor chip. Then, the sensor chip was regenerated by the injection of 10 mmol/L glycine-HCl (pH 1.5). The assay was conducted at 25 degrees C., and HBS-EP+(GE Healthcare Japan Corp.) was used as a running buffer. […] Each parameter was calculated using Biacore T200 Evaluation Software (GE Healthcare Japan Corp.).
Specifically, when the amount of the GLS3000-containing antibody bound was defined as X and the amount of the L chain one-amino acid altered form bound was defined as Y, a value of Z (ratio of amounts bound)=Y/X was used.

The target of experiment [4] is human CD137 expressed constitutively on the B cell strain HDLM-2 (human, UniProt Q07011 24-255). Nature of the experiment: cell-based or functional assay.
Sequence of human CD137 expressed constitutively on the B cell strain HDLM-2 (Q07011 24-255): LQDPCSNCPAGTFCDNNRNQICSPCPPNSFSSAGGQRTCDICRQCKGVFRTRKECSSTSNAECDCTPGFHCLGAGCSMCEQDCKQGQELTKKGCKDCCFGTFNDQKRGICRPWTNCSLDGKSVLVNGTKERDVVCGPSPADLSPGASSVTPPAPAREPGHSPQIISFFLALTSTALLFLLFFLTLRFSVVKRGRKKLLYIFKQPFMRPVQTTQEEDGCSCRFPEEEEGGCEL

T1 sequence (P07766 23-126 limits assumed, chain 1 of 2): as the sequence (P07766 23-126) above
T1 sequence (P04234 22-105 limits assumed, chain 2 of 2): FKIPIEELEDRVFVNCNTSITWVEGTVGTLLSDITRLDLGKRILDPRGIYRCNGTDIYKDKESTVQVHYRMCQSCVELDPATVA

B1: dBBDu_186 / dBBDu_L096 (antibody, human IgG1, V domains shown)
VH: QVQLVESGGGLVQPGRSLRLSCAASGFTFSNAWMHWVRQAPGKGLEWVAQIKDRSNQYATYYAPSVKGRFTISRDDSKNSIYLQMNSLKTEDTAVYYCHYVHYAQASTVLPAFGVDAWGQGTTVTVSS
VL: DIVMTQSPLSLPVTPGEPASISCRTSQELVHINRYIFLHWYQQKPGQAPRLLIYKVYNRFQGVPDRFSGSGSGTDFTLKISRVEAEDVGVYYCAQGTSVPYTFGQGTKLEIK
notes: Tested as IgG (human IgG1 constant region, kappa light chain); also called dBBDu186/L096
In experiment [1], B1 returned a Kd of 9.11 µM, a koff of 0.102 s⁻¹ and a kon of 11200 M⁻¹ s⁻¹. In experiment [2], this molecule displayed a Kd of 205 µM and a koff of 0.00223 s⁻¹.

B2: dBBDu_167 / dBBDu_L091 (antibody, human IgG1, V domains shown)
VH: QVQLVESGGGLVQPGRSLRLSCAASGFTFSNAWMHWVRQAPGKGLEWVAQIKDKGNLYAAYYAPSVKGRFTISRDDSKNSIYLQMNSLKTEDTAVYYCHYVHYASAGGGLPGFGVDAWGQGTTVTVSS
VL: DIVMTQSPLSLPVTPGEPASISCSASESLLHNNRHTYLHWYQQKPGQAPRLLIYRVSNRFNGVPDRFSGSGSGTDFTLKISRVEAEDVGVYYCGQGTQVPFTFGQGTKLEIK
notes: Tested as IgG (human IgG1 constant region, kappa light chain); also called dBBDu167/L091
In experiment [1], B2 had a Kd of 0.413 µM, a koff of 0.0216 s⁻¹ and a kon of 52400 M⁻¹ s⁻¹. For the same molecule, in experiment [2], binding was characterised by a dissociation constant (Kd) of 4.17 µM, the koff stood at 0.0101 s⁻¹ and the kon amounted to 2430 M⁻¹ s⁻¹.

B3: dBBDu_189 / dBBDu_L112 (antibody, human IgG1, V domains shown)
VH: QVQLVESGGGLVQPGRSLRLSCAASGFTFSNAWMHWVRQAPGKGLEWIAQIKDRSNQYATYYAPSVKGRFTISRDDSKNSIYLQMNSLKTEDTAVYYCHYVHYAQASSLLPSFGVDAWGQGTTVTVSS
VL: DIVMTQSPLSLPVTPGEPASISCTSDQELVHMNRHTYLHWYQQKPGQAPRLLIYKVYNRFPGVPDRFSGSGSGTDFTLKISRVEAEDVGVYYCAQGTSVPFTFGQGTKLEIK
notes: Tested as IgG (human IgG1 constant region, kappa light chain); also called dBBDu189/L112
In experiment [1], B3 had a Kd of 0.331 µM, a koff of 0.01 s⁻¹ and a kon of 30300 M⁻¹ s⁻¹. Also, in experiment [2], the Kd is 5.76 µM, the koff is 0.0286 s⁻¹ and the kon came out at 4980 M⁻¹ s⁻¹.

B4: dBBDu_189 / dBBDu_L116 (antibody, human IgG1, V domains shown)
VH: QVQLVESGGGLVQPGRSLRLSCAASGFTFSNAWMHWVRQAPGKGLEWIAQIKDRSNQYATYYAPSVKGRFTISRDDSKNSIYLQMNSLKTEDTAVYYCHYVHYAQASSLLPSFGVDAWGQGTTVTVSS
VL: DIVMTQSPLSLPVTPGEPASISCSSSQELVHANRQIYLHWYQQKPGQAPRLLIYKVANRFPGVPDRFSGSGSGTDFTLKISRVEAEDVGVYYCAQGTQVPFTFGQGTKLEIK
notes: Tested as IgG (human IgG1 constant region, kappa light chain); also called dBBDu189/L116
In experiment [1], B4 returned a Kd of 0.209 µM, a koff of 0.00434 s⁻¹ and a kon of 20800 M⁻¹ s⁻¹. For the same molecule, in experiment [2], binding was characterised by a dissociation constant (Kd) of 11.1 µM, the koff is 0.00823 s⁻¹ and the kon amounted to 744 M⁻¹ s⁻¹.

B5: dBBDu_183 / dBBDu_L063 (antibody, V domains shown)
VH: QVQLVESGGGLVQPGRSLRLSCAASGFTFSNAWMHWVRQAPGKGLEWVAQIKDKGNAYAAYYAPSVKGRFTISRDDSKNSIYLQMNSLKTEDTAVYYCHYVHYASASTVLPAFGVDAWGQGTTVTVSS
VL: DIVMTQSPLSLPVTPGEPASISCRSSQELVHTNRHTYLHWYQQKPGQAPRLLIYKVSNRFPGVPDRFSGSGSGTDFTLKISRVEAEDVGVYYCAQGTQVPFTFGQGTKLEIK
notes: Tested as IgG (Fab genes converted into IgG format, human IgG1 constant region, kappa light chain); also called dBBDu183/L063; dBBDu_183/L063
Take B5: in experiment [1], binding was characterised by a dissociation constant (Kd) of 0.276 µM, the koff was 0.0157 s⁻¹ and the kon is 56900 M⁻¹ s⁻¹. Also, in experiment [2], the Kd was 3.12 µM, the koff came out at 0.00457 s⁻¹ and the kon worked out at 1470 M⁻¹ s⁻¹.

B6: dBBDu_183 / dBBDu_L067 (antibody, human IgG1, V domains shown)
VH: QVQLVESGGGLVQPGRSLRLSCAASGFTFSNAWMHWVRQAPGKGLEWVAQIKDKGNAYAAYYAPSVKGRFTISRDDSKNSIYLQMNSLKTEDTAVYYCHYVHYASASTVLPAFGVDAWGQGTTVTVSS
VL: DIVMTQSPLSLPVTPGEPASISCQSSESLVHVNRHTYLHWYQQKPGQAPRLLIYKVYNRFPGVPDRFSGSGSGTDFTLKISRVEAEDVGVYYCAQGTSVPFTFGQGTKLEIK
notes: Tested as IgG (human IgG1 constant region, kappa light chain); also called dBBDu183/L067
In experiment [1], B6 gave a Kd of 0.217 µM, a koff of 0.0193 s⁻¹ and a kon of 88900 M⁻¹ s⁻¹. In experiment [2], this molecule had a Kd of 6.2 µM, a koff of 0.00813 s⁻¹ and a kon of 1310 M⁻¹ s⁻¹.

B7: dBBDu_183 / dBBDu_L072 (antibody, human IgG1, V domains shown)
VH: QVQLVESGGGLVQPGRSLRLSCAASGFTFSNAWMHWVRQAPGKGLEWVAQIKDKGNAYAAYYAPSVKGRFTISRDDSKNSIYLQMNSLKTEDTAVYYCHYVHYASASTVLPAFGVDAWGQGTTVTVSS
VL: DIVMTQSPLSLPVTPGEPASISCQASQELVHMNRNTYLHWYQQKPGQAPRLLIYKVSNRFPGVPDRFSGSGSGTDFTLKISRVEAEDVGVYYCAQGTSVPFTFGQGTKLEIK
notes: Tested as IgG (human IgG1 constant region, kappa light chain); also called dBBDu183/L072; H183L072
For B7, in experiment [1], binding was characterised by a dissociation constant (Kd) of 0.217 µM, the koff amounted to 0.00785 s⁻¹ and the kon was determined as 36100 M⁻¹ s⁻¹. In experiment [2], this molecule registered a Kd of 4.87 µM, an off-rate constant (koff) of 0.00593 s⁻¹ and a kon of 1220 M⁻¹ s⁻¹.

B8: GLS3000 V94P one-amino acid altered one-arm antibody (CE115HA000-pE22Hh / Kn010G3 / GLS3000 V94P-kappa) (antibody, human IgG1, kappa, L234A L235A, N297A, name in Kabat numbering)
heavy: QVQLVESGGGVVQPGRSLRLSCAASGFTFSNAWMHWVRQAPGKGLEWVAQIKAKSNNYATYYAESVKGRFTISRDDSKNSLYLQMNSLKTEDTAVYYCRYVHYGAYYGVDAWGQGTTVTVSSASTKGPSVFPLAPSSKSTSGGTAALGCLVKDYFPEPVTVSWNSGALTSGVHTFPAVLQSSGLYSLSSVVTVPSSSLGTQTYICNVNHKPSNTKVDKKVEPKSCDKTHTCPPCPAPEAAGGPSVFLFPPKPKDTLMISRTPEVTCVVVDVSHEDPEVKFNWYVDGVEVHNAKTKPREEQYASTYRVVSVLTVLHQDWLNGKEYKCKVSNKALPAPIEKTISKAKGQPREPQVYTLPPSRCELTKNQVSLSCAVKGFYPSDIAVEWESNGQPENNYKTTPPVLDSDGSFFLVSKLTVDKSRWQQGNVFSCSVMHEALHNHYTQKSLSLSPDYKDDDDK
chain: EPKSSDKTHTCPPCPAPELLGGPSVFLFPPKPKDTLMISRTPEVTCVVVDVSHEDPEVKFNWYVDGVEVHNAKTKPREEQYNSTYRVVSVLTVLHQDWLNGKEYKCKVSNKALPAPIEKTISKAKGQPREPQVCTLPPSRDELTKNQVSLWCLVKGFYPSDIAVEWESNGQPENNYKTTPPVLDSDGSFFLYSKLTVDKSRWQQGNVFSCSVMHEALHNRYTQKSLSLSP
light: DIVMTQSPLSLPVTPGEPASISCRSSQSLVHSNRNTYLHWYQQKPGQAPRLLIYKVSNRFSGVPDRFSGSGSGTDFTLKISRVEAEDVGVYYCGQGTQPPYTFGQGTKLEIKRTVAAPSVFIFPPSDEQLKSGTASVVCLLNNFYPREAKVQWKVDNALQSGNSQESVTEQDSKDSTYSLSSTLTLSKADYEKHKVYACEVTHQGLSSPVTKSFNRGEC
notes: One-arm antibody; substitution position in Kabat numbering; also called L chain altered form, Kabat 94 V to P
On to B8, for which the “dissociation constant KD(M) ratio of L chain altered form to GLS3000” value in experiment [3] was 1.1 ratio.

B9: GPC3 ERY22-dBBDu_189/L119 (bispecific antibody, human IgG1, kappa, L234A L235A, N297A)
heavy 1: DIVMTQSPLSLPVTPGEPASISCRSSQSLVHSNRNTYLHWYQQKPGQAPRLLIYKVSNRFSGVPDRFSGSGSGTDFTLKISRVEAEDVGVYYCSQNTHVPPTFGQGTKLEIKSSASTKGPSVFPLAPSSKSTSGGTAALGCLVKDYFPEPVTVSWNSGALTSGVHTFPAVLQSSGLYSLSSVVTVPSSSLGTQTYICNVNHKPSNTKVDKKVEPKSCDKTHTCPPCPAPEAAGGPSVFLFPPKPKDTLMISRTPEVTCVVVDVSHEDPEVKFNWYVDGVEVHNAKTKPREEQYASTYRVVSVLTVLHQDWLNGKEYKCKVSNKALPAPIEKTISKAKGQPREPQVCTLPPSRDELTKNQVSLWCLVKGFYPSDIAVEWESNGQPENNYKTTPPVLDSDGSFFLYSKLTVDKSRWQQGNVFSCSVMHEALHNHYTQKSLSLSPHHHHHHHH
light 1: QVQLVQSGAEVKKPGASVKVSCKASGYTFTDYEMHWIRQPPGQGLEWIGAIDPKTGDTAYSQKFKGRVTLTADKSTSTAYMELSSLTSEDTAVYYCTRFYSYTYWGQGTLVTVSSASVAAPSVFIFPPSDEQLKSGTASVVCLLNNFYPREAKVQWKVDNALQSGNSQESVTEQDSKDSTYSLSSTLTLSKADYEKHKVYACEVTHQGLSSPVTKSFNRGEC
heavy 2: QVQLVESGGGLVQPGRSLRLSCAASGFTFSNAWMHWVRQAPGKGLEWIAQIKDRSNQYATYYAPSVKGRFTISRDDSKNSIYLQMNSLKTEDTAVYYCHYVHYAQASSLLPSFGVDAWGQGTTVTVSSASTKGPSVFPLAPSSKSTSGGTAALGCLVKDYFPEPVTVSWNSGALTSGVHTFPAVLQSSGLYSLSSVVTVPSSSLGTQTYICNVNHKPSNTKVDKKVEPKSCDKTHTCPPCPAPEAAGGPSVFLFPPKPKDTLMISRTPEVTCVVVDVSHEDPEVKFNWYVDGVEVHNAKTKPREEQYASTYRVVSVLTVLHQDWLNGKEYKCKVSNKALPAPIEKTISKAKGQPREPQVYTLPPSRCELTKNQVSLSCAVKGFYPSDIAVEWESNGQPENNYKTTPPVLDSDGSFFLVSKLTVDKSRWQQGNVFSCSVMHEALHNHYTQKSLSLSPDYKDDDDK
light 2: DIVMTQSPLSLPVTPGEPASISCTASQELVHINRFIFLHWYQQKPGQAPRLLIYKVSNRFIGVPDRFSGSGSGTDFTLKISRVEAEDVGVYYCAQGSQVPFTFGQGTKLEIKRTVAAPSVFIFPPSDEQLKSGTASVVCLLNNFYPREAKVQWKVDNALQSGNSQESVTEQDSKDSTYSLSSTLTLSKADYEKHKVYACEVTHQGLSSPVTKSFNRGEC
Take B9: in experiment [4], the “Agonistic activity compared to B, antibody 6 µg/mL” value is 6.92%; the “Agonistic activity compared to B, antibody 30 µg/mL” value worked out at 20.4%; the “Agonistic activity compared to Ctrl, antibody 6 µg/mL” value came to 24%; the “Agonistic activity compared to Ctrl, antibody 30 µg/mL” value was found to be 77.3%. Further, in experiment [4], the “hIL-6 (pg/mL), antibody 6 µg/mL” value was 1260 pg/mL and the “hIL-6 (pg/mL), antibody 30 µg/mL” value turned out to be 1610 pg/mL.

For the origin of these results see patent publication US20240270846A1 (published 2024).
